Drawing on patent US20180346932A1, this text covers demethylation of the Gfap STAT3 site in ESCs (COBRA, standardized demethylation percentage) for 1 substance.

This experiment deals with dCas9-GCN4 fusion protein of System 3 (dCas9 with 5 copies of GCN4 peptides, linker of 22 amino acids) (S. pyogenes) (UniProt Q99ZW2). Briefly: cell-based or functional assay.

Chain of GCN4 peptide antibody (scFv)-superfolder green fluorescent protein (sfGFP)-TET1CD fusion protein (Q8NFU7 1418-2136): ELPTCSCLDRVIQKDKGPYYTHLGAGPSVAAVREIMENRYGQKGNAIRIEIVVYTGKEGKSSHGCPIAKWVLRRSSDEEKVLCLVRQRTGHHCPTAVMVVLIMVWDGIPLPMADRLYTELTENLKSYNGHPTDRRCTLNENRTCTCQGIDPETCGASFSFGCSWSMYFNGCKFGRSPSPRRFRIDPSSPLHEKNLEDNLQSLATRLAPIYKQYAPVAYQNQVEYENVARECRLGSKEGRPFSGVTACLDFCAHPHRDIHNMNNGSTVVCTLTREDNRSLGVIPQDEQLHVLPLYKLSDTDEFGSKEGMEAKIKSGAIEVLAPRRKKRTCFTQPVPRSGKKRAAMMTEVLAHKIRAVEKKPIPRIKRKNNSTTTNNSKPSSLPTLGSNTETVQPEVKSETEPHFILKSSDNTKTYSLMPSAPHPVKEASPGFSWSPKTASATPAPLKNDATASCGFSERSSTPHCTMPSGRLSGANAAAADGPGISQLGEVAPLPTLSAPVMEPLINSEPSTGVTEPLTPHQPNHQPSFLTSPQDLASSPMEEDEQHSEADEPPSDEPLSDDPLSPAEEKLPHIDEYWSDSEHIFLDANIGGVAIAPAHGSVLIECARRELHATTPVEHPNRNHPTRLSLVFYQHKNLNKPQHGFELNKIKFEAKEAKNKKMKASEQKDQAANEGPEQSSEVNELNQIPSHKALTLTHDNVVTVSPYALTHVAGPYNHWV

“GCN4 peptide antibody (scFv)-superfolder green fluorescent protein (sfGFP)-TET1CD fusion protein (from UniProt Q8NFU7 1418-2136)” displayed a demethylation of the Gfap STAT3 site in ESCs (COBRA, standardized demethylation percentage) of 43%.
